Test results reported in patent EP0980426B1 (Genentech, Inc., dated 2004).

B1: PXXP-HSCF peptide, 432GFNLRIGRPKGPRDPPAEWT451 (PTP HSCF) (peptide)
peptide: GFNLRIGRPKGPRDPPAEWT
notes: Synthetic peptide; also called C-terminally derived PTP HSCF peptide; peptide derived from the C-terminus of PTP HSCF

Molecular target: T1, PSTPIP, full-length, with a C-terminal FLAG epitope (murine, UniProt P97814 1-415)
T1 construct: In vitro transcribed/translated or expressed in COS cells from pRK.PIP.FLAG.C
T1 sequence: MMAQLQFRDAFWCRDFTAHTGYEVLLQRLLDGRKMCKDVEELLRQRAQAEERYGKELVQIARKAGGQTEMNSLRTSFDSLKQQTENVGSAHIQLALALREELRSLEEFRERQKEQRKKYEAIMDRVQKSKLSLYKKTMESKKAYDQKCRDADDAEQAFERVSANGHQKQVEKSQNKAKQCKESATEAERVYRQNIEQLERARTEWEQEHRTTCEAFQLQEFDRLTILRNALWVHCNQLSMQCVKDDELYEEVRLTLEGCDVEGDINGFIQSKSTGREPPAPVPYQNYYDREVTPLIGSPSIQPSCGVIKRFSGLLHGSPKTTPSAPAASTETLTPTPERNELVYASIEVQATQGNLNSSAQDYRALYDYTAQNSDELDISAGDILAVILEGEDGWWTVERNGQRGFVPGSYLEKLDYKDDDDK
Experiment: peptide competition of GST-PST-rich+CTH PTP HSCF pull-down of in vitro translated PSTPIP

Lowest concentration that blocks the interaction, ~800 nM:
GFGNRCGKPKGPRDPPSEWT (Synthetic peptide) [PXXP-PEST peptide, 761GFGNRCGKPKGPRDPPSEWT780 (PTP PEST)]
B1
GFGNRFSKPKGPRNPPSAW (Synthetic peptide) [PXXP-PEP peptide, 782GFGNRFSKPKGPRNPPSAW800 (PTP PEP)]
